In US20040151724A1 (published 2004):

Target: T1, MUC1 (UniProt P15941 24-1255, limits assumed)
T1 construct: whole, on cells; also called B16MUC1; C57MUC1
Assay: flow cytometry of Fab on C57MUC1 cells (murine + MUC1)

T1 sequence (P15941 24-1255 limits assumed): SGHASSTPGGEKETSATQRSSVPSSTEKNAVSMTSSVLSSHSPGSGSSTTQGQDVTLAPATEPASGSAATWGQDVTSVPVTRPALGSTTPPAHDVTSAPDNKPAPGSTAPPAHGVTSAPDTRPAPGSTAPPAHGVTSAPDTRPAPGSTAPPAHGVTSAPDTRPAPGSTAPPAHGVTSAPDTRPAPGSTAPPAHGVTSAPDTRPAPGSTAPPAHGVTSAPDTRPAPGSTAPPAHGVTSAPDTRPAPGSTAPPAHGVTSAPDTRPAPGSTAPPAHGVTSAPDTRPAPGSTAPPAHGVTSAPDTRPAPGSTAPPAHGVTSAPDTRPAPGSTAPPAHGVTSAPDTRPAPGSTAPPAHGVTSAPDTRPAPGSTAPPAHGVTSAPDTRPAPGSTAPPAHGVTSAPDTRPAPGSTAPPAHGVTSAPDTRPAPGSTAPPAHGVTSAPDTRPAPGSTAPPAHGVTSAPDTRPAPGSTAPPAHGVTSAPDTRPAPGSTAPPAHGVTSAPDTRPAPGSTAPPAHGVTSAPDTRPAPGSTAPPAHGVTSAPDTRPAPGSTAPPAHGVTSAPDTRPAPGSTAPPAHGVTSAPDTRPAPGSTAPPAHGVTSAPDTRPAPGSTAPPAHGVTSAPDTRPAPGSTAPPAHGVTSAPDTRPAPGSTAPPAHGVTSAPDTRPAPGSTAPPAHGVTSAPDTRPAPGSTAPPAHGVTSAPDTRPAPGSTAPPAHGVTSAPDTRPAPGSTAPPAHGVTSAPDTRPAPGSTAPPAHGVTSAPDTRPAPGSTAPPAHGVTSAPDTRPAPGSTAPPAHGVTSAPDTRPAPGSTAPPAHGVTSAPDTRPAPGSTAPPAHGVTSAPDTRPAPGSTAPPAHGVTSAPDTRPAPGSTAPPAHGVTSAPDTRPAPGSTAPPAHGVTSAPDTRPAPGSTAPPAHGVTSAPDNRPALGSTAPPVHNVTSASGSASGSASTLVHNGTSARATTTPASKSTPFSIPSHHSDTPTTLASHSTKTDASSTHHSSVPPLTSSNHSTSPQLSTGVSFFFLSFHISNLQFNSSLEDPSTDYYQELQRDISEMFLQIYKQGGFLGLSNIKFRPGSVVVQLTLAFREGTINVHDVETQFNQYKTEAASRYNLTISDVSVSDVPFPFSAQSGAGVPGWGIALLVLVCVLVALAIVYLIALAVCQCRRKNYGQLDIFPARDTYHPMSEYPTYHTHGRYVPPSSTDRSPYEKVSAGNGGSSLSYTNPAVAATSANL

B1: Fab 14.6.20 (Fab, V domains shown)
VH: EVQLVQSGGGLVQPGGSLRLSCTASGFIFNNYAMSWVRQAPGKGLEWVSGISTGGSSTYHADSVKGRFTISRDNFKKTLWLQMNSLTPEDAAVYYCARHANFWNGYLEKGAIDYWGQGTLVTVSS
VL: ELQMTQSPSTLSASVGDRVTITCRASHSVSGWLAWYQQKPGKAPKLLSYEPSSLESGVPSRFSGSGSGTEFTLTISSLQPEDFATYYCQESYRITSLTFGGGTKVETRR
notes: also called Fab clone 14.6.20
B1: no binding.
